Laboratory results: paper PMC8678608

Target: human VEGF165 protein (human)
Test: ELISA; plates coated with recombinant human PD-L1 or VEGF165 (100 ng/well, carbonate buffer); antibody 1 h at room temperature; detected with HRP goat anti-human Fc, TMB, 450 nm

EC50: 0.48 nM
B1: HB0025 (anti-PD-L1/VEGFR1D2-Ig fusion protein) (bispecific antibody, V domains shown)
VH: QVQLVQSGAEVKKPGASVKVSCKASGYAFTGYTIHWVRQAPGQRLEWMGWFYPGSGTLKYSEKFQGRVTITRDKSLSTAYMELSSLRSEDTAVYYCARHGTGTLMAMDYWGQGTLVTVSS
VL: DVVMTQTPLSLSVTPGQPASISCKSSQSLANSYGNTYLSWYLHKPGQSPQLLIYGISNRFSGVPDRFSGSGSGTDFTLKISRVEAEDVGVYYCLQGTHQPPTFGQGTKLEIK
